Source: patent US20220119468A1, “AMYLOID PEPTIDE VARIANTS” (published 2022)
Where a chain is given by its changes, count along the chain named.

Molecular target: T1, human Islet Amyloid Polypeptide (human)
T1 peptide: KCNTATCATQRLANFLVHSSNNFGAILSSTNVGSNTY
Experiment: cell-based or functional assay

B1: raccoon IAPP (peptide)
peptide: KCNTATCVTQRLANFLLRSSNNLGAILSPTNVGSNTY
  cell viability of RIN-m cells (MTT viability assay): 72 % cell viability

B2: seal IAPP (peptide)
peptide: B1 peptide with V8A, L17V
  cell viability of RIN-m cells (MTT viability assay): ~62 % cell viability

B3: cat IAPP (peptide)
peptide: B1 peptide with V8A, L17I
  cell viability of RIN-m cells (MTT viability assay): ~62 % cell viability

B4: chicken IAPP (peptide)
peptide: KCNTATCVTQRLADFLVRSSSNIGAIYSPTNVGSNTY
  cell viability of RIN-m cells (MTT viability assay): 76 % cell viability
